Assay [1] has as its target T1, human amylin 3(a) receptor (human calcitonin receptor co-expressed with RAMP-3) (human, UniProt P30988 25-474; O60896 24-148, limits assumed).
T1 sequence (looked up) 1: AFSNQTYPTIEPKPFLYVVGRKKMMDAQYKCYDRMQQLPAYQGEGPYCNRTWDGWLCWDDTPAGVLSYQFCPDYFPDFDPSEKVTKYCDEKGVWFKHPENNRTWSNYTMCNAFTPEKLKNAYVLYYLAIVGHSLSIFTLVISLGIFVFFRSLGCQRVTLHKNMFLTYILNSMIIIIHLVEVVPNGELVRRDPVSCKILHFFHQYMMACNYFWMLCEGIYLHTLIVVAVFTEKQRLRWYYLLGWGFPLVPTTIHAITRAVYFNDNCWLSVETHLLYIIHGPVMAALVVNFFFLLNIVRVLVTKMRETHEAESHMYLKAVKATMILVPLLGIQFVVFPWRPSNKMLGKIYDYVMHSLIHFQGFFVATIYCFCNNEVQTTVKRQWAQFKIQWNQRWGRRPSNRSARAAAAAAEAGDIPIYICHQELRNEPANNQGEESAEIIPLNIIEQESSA
T1 sequence (looked up) 2: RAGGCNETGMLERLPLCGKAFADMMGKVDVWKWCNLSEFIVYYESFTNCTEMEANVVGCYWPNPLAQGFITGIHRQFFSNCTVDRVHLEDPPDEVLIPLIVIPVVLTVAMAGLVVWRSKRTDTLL
The assay is described as follows: cell-based or functional assay.

In assay [2] the target is T2, human calcitonin receptor (human, UniProt P30988 25-474).
T2 sequence (looked up): T1 sequence (looked up) 1
The assay can be described thus: cell-based or functional assay.

Numbered stars: 1 amine (or outer) side, 2 acyl side, 3 side chain; on linkers, the order of the positions; unused ones are H or OH. * marks the point of attachment. C20 diacid = O=C(O)CCCCCCCCCCCCCCCCCCC(=O)*; C18 diacid = O=C(O)CCCCCCCCCCCCCCCCC(=O)*; γGlu = O=C(O)[C@H](CCC(=O)[*:2])N[*:1]

B1: [N-terminal(C20 diacid-gGlu), des1, 23Y, 30S, 31G, 34G, C-terminal(-)]mimylin (peptide)
peptide: {C20 diacid-γGlu}-ASELSTAALGRLSAELHELATYPRTETGSGSPG-OH
SMILES: CC(C)C[C@H](NC(=O)[C@H](C)NC(=O)[C@H](C)NC(=O)[C@@H](NC(=O)[C@H](CO)NC(=O)[C@H](CC(C)C)NC(=O)[C@H](CCC(=O)O)NC(=O)[C@H](CO)NC(=O)[C@H](C)NC(=O)CC[C@H](NC(=O)CCCCCCCCCCCCCCCCCCC(=O)O)C(=O)O)[C@@H](C)O)C(=O)NCC(=O)N[C@@H](CCCNC(=N)N)C(=O)N[C@@H](CC(C)C)C(=O)N[C@@H](CO)C(=O)N[C@@H](C)C(=O)N[C@@H](CCC(=O)O)C(=O)N[C@@H](CC(C)C)C(=O)N[C@@H](Cc1c[nH]cn1)C(=O)N[C@@H](CCC(=O)O)C(=O)N[C@@H](CC(C)C)C(=O)N[C@@H](C)C(=O)N[C@H](C(=O)N[C@@H](Cc1ccc(O)cc1)C(=O)N1CCC[C@H]1C(=O)N[C@@H](CCCNC(=N)N)C(=O)N[C@H](C(=O)N[C@@H](CCC(=O)O)C(=O)N[C@H](C(=O)NCC(=O)N[C@@H](CO)C(=O)NCC(=O)N[C@@H](CO)C(=O)N1CCC[C@H]1C(=O)NCC(=O)O)[C@@H](C)O)[C@@H](C)O)[C@@H](C)O
For the molecule B1, the “hAmylin-R funct. EC50 (pM)” value in assay [1] is 187 pM. The “hCTR funct. EC50 (pM)” value in assay [2] is 64 pM.

B2: [N-terminal(C18 diacid-gGlu), des1, 6T, 9V, 30S, 31G]mimylin (peptide)
peptide: {C18 diacid-γGlu}-ASELTTAVLGRLSAELHELATLPRTETGSGSP-NH2
SMILES: CC(C)C[C@H](NC(=O)[C@H](CCC(=O)O)NC(=O)[C@H](Cc1c[nH]cn1)NC(=O)[C@H](CC(C)C)NC(=O)[C@H](CCC(=O)O)NC(=O)[C@H](C)NC(=O)[C@H](CO)NC(=O)[C@H](CC(C)C)NC(=O)[C@H](CCCNC(=N)N)NC(=O)CNC(=O)[C@H](CC(C)C)NC(=O)[C@@H](NC(=O)[C@H](C)NC(=O)[C@@H](NC(=O)[C@@H](NC(=O)[C@H](CC(C)C)NC(=O)[C@H](CCC(=O)O)NC(=O)[C@H](CO)NC(=O)[C@H](C)NC(=O)CC[C@H](NC(=O)CCCCCCCCCCCCCCCCC(=O)O)C(=O)O)[C@@H](C)O)[C@@H](C)O)C(C)C)C(=O)N[C@@H](C)C(=O)N[C@H](C(=O)N[C@@H](CC(C)C)C(=O)N1CCC[C@H]1C(=O)N[C@@H](CCCNC(=N)N)C(=O)N[C@H](C(=O)N[C@@H](CCC(=O)O)C(=O)N[C@H](C(=O)NCC(=O)N[C@@H](CO)C(=O)NCC(=O)N[C@@H](CO)C(=O)N1CCC[C@H]1C(N)=O)[C@@H](C)O)[C@@H](C)O)[C@@H](C)O
Take B2: the “hAmylin-R funct. EC50 (pM)” value in assay [1] was 33 pM. For the same molecule, the “hCTR funct. EC50 (pM)” value in assay [2] was 28 pM.

On to {C18 diacid-γGlu}-ASEVSTAVLGRLSAELHELATLPRTETGSGSP-NH2 [[N-terminal(C18 diacid-gGlu), des1, 5V, 9V, 30S, 31G]mimylin], for which the “hAmylin-R funct. EC50 (pM)” value in assay [1] was determined as 32 pM. Further, the “hCTR funct. EC50 (pM)” value in assay [2] was determined as 13 pM.

Take {C20 diacid-γGlu}-ASELSTAALGRLSAELHELATYPRTETGSGSY-OH [[N-terminal(C20 diacid-gGlu), des1, 23Y, 30S, 31G, 33Y, C-terminal(-)]mimylin]: in assay [1], the “hAmylin-R funct. EC50 (pM)” value is 461 pM. The “hCTR funct. EC50 (pM)” value in assay [2] stood at 127 pM.

B3: [N-terminal(C18 diacid), 5I]mimylin (peptide)
peptide: {C18 diacid}-EASEISTAALGRLSAELHELATLPRTETGPESP-NH2
SMILES: CC[C@H](C)[C@H](NC(=O)[C@H](CCC(=O)O)NC(=O)[C@H](CO)NC(=O)[C@H](C)NC(=O)[C@H](CCC(=O)O)NC(=O)CCCCCCCCCCCCCCCCC(=O)O)C(=O)N[C@@H](CO)C(=O)N[C@H](C(=O)N[C@@H](C)C(=O)N[C@@H](C)C(=O)N[C@@H](CC(C)C)C(=O)NCC(=O)N[C@@H](CCCNC(=N)N)C(=O)N[C@@H](CC(C)C)C(=O)N[C@@H](CO)C(=O)N[C@@H](C)C(=O)N[C@@H](CCC(=O)O)C(=O)N[C@@H](CC(C)C)C(=O)N[C@@H](Cc1c[nH]cn1)C(=O)N[C@@H](CCC(=O)O)C(=O)N[C@@H](CC(C)C)C(=O)N[C@@H](C)C(=O)N[C@H](C(=O)N[C@@H](CC(C)C)C(=O)N1CCC[C@H]1C(=O)N[C@@H](CCCNC(=N)N)C(=O)N[C@H](C(=O)N[C@@H](CCC(=O)O)C(=O)N[C@H](C(=O)NCC(=O)N1CCC[C@H]1C(=O)N[C@@H](CCC(=O)O)C(=O)N[C@@H](CO)C(=O)N1CCC[C@H]1C(N)=O)[C@@H](C)O)[C@@H](C)O)[C@@H](C)O)[C@@H](C)O
Turning to B3, the “hAmylin-R funct. EC50 (pM)” value in assay [1] is 7 pM. The “hCTR funct. EC50 (pM)” value in assay [2] worked out at 7 pM.

B4: [N-terminal(C18 diacid-gGlu), des1, 4Q, 16Q, 30S, 31G]mimylin (peptide)
peptide: {C18 diacid-γGlu}-ASQLSTAALGRLSAQLHELATLPRTETGSGSP-NH2
SMILES: CC(C)C[C@H](NC(=O)[C@H](C)NC(=O)[C@H](C)NC(=O)[C@@H](NC(=O)[C@H](CO)NC(=O)[C@H](CC(C)C)NC(=O)[C@H](CCC(N)=O)NC(=O)[C@H](CO)NC(=O)[C@H](C)NC(=O)CC[C@H](NC(=O)CCCCCCCCCCCCCCCCC(=O)O)C(=O)O)[C@@H](C)O)C(=O)NCC(=O)N[C@@H](CCCNC(=N)N)C(=O)N[C@@H](CC(C)C)C(=O)N[C@@H](CO)C(=O)N[C@@H](C)C(=O)N[C@@H](CCC(N)=O)C(=O)N[C@@H](CC(C)C)C(=O)N[C@@H](Cc1c[nH]cn1)C(=O)N[C@@H](CCC(=O)O)C(=O)N[C@@H](CC(C)C)C(=O)N[C@@H](C)C(=O)N[C@H](C(=O)N[C@@H](CC(C)C)C(=O)N1CCC[C@H]1C(=O)N[C@@H](CCCNC(=N)N)C(=O)N[C@H](C(=O)N[C@@H](CCC(=O)O)C(=O)N[C@H](C(=O)NCC(=O)N[C@@H](CO)C(=O)NCC(=O)N[C@@H](CO)C(=O)N1CCC[C@H]1C(N)=O)[C@@H](C)O)[C@@H](C)O)[C@@H](C)O
On to B4, for which the “hAmylin-R funct. EC50 (pM)” value in assay [1] was 9 pM. Besides, the “hCTR funct. EC50 (pM)” value in assay [2] is 13 pM.

B5: [N-terminal(C20 diacid-gGlu), des1, 9S, 23Y, 30S, 31G, 33Y]mimylin (peptide)
peptide: {C20 diacid-γGlu}-ASELSTASLGRLSAELHELATYPRTETGSGSY-NH2
SMILES: CC(C)C[C@H](NC(=O)[C@H](CO)NC(=O)[C@H](C)NC(=O)[C@@H](NC(=O)[C@H](CO)NC(=O)[C@H](CC(C)C)NC(=O)[C@H](CCC(=O)O)NC(=O)[C@H](CO)NC(=O)[C@H](C)NC(=O)CC[C@H](NC(=O)CCCCCCCCCCCCCCCCCCC(=O)O)C(=O)O)[C@@H](C)O)C(=O)NCC(=O)N[C@@H](CCCNC(=N)N)C(=O)N[C@@H](CC(C)C)C(=O)N[C@@H](CO)C(=O)N[C@@H](C)C(=O)N[C@@H](CCC(=O)O)C(=O)N[C@@H](CC(C)C)C(=O)N[C@@H](Cc1c[nH]cn1)C(=O)N[C@@H](CCC(=O)O)C(=O)N[C@@H](CC(C)C)C(=O)N[C@@H](C)C(=O)N[C@H](C(=O)N[C@@H](Cc1ccc(O)cc1)C(=O)N1CCC[C@H]1C(=O)N[C@@H](CCCNC(=N)N)C(=O)N[C@H](C(=O)N[C@@H](CCC(=O)O)C(=O)N[C@H](C(=O)NCC(=O)N[C@@H](CO)C(=O)NCC(=O)N[C@@H](CO)C(=O)N[C@@H](Cc1ccc(O)cc1)C(N)=O)[C@@H](C)O)[C@@H](C)O)[C@@H](C)O
B5: in assay [1], the “hAmylin-R funct. EC50 (pM)” value turned out to be 37 pM. For the same molecule, the “hCTR funct. EC50 (pM)” value in assay [2] was 41 pM.

B6: [N-terminal(C20 diacid-gGlu), des1, 9T, 21S, 23Y, 30S, 31G]mimylin (peptide)
peptide: {C20 diacid-γGlu}-ASELSTATLGRLSAELHELSTYPRTETGSGSP-NH2
SMILES: CC(C)C[C@H](NC(=O)[C@H](CCCNC(=N)N)NC(=O)CNC(=O)[C@H](CC(C)C)NC(=O)[C@@H](NC(=O)[C@H](C)NC(=O)[C@@H](NC(=O)[C@H](CO)NC(=O)[C@H](CC(C)C)NC(=O)[C@H](CCC(=O)O)NC(=O)[C@H](CO)NC(=O)[C@H](C)NC(=O)CC[C@H](NC(=O)CCCCCCCCCCCCCCCCCCC(=O)O)C(=O)O)[C@@H](C)O)[C@@H](C)O)C(=O)N[C@@H](CO)C(=O)N[C@@H](C)C(=O)N[C@@H](CCC(=O)O)C(=O)N[C@@H](CC(C)C)C(=O)N[C@@H](Cc1c[nH]cn1)C(=O)N[C@@H](CCC(=O)O)C(=O)N[C@@H](CC(C)C)C(=O)N[C@@H](CO)C(=O)N[C@H](C(=O)N[C@@H](Cc1ccc(O)cc1)C(=O)N1CCC[C@H]1C(=O)N[C@@H](CCCNC(=N)N)C(=O)N[C@H](C(=O)N[C@@H](CCC(=O)O)C(=O)N[C@H](C(=O)NCC(=O)N[C@@H](CO)C(=O)NCC(=O)N[C@@H](CO)C(=O)N1CCC[C@H]1C(N)=O)[C@@H](C)O)[C@@H](C)O)[C@@H](C)O
For the molecule B6, the “hAmylin-R funct. EC50 (pM)” value in assay [1] was found to be 22 pM. Moreover, in assay [2], the “hCTR funct. EC50 (pM)” value was 23 pM.

B7: [N-terminal(C20 diacid-gGlu), des1, 23Y, 30S, 31G, 34K, C-terminal(-)]mimylin (peptide)
peptide: {C20 diacid-γGlu}-ASELSTAALGRLSAELHELATYPRTETGSGSPK-OH
SMILES: CC(C)C[C@H](NC(=O)[C@H](C)NC(=O)[C@H](C)NC(=O)[C@@H](NC(=O)[C@H](CO)NC(=O)[C@H](CC(C)C)NC(=O)[C@H](CCC(=O)O)NC(=O)[C@H](CO)NC(=O)[C@H](C)NC(=O)CC[C@H](NC(=O)CCCCCCCCCCCCCCCCCCC(=O)O)C(=O)O)[C@@H](C)O)C(=O)NCC(=O)N[C@@H](CCCNC(=N)N)C(=O)N[C@@H](CC(C)C)C(=O)N[C@@H](CO)C(=O)N[C@@H](C)C(=O)N[C@@H](CCC(=O)O)C(=O)N[C@@H](CC(C)C)C(=O)N[C@@H](Cc1c[nH]cn1)C(=O)N[C@@H](CCC(=O)O)C(=O)N[C@@H](CC(C)C)C(=O)N[C@@H](C)C(=O)N[C@H](C(=O)N[C@@H](Cc1ccc(O)cc1)C(=O)N1CCC[C@H]1C(=O)N[C@@H](CCCNC(=N)N)C(=O)N[C@H](C(=O)N[C@@H](CCC(=O)O)C(=O)N[C@H](C(=O)NCC(=O)N[C@@H](CO)C(=O)NCC(=O)N[C@@H](CO)C(=O)N1CCC[C@H]1C(=O)N[C@@H](CCCCN)C(=O)O)[C@@H](C)O)[C@@H](C)O)[C@@H](C)O
As for B7, in assay [1], the “hAmylin-R funct. EC50 (pM)” value stood at 239 pM. In addition, in assay [2], the “hCTR funct. EC50 (pM)” value was 88 pM.

These data come from patent US20160272683A1 (Novo Nordisk, published 2016).
